Assay results reported in article PMC9254494, “Modulation of synaptic plasticity, motor unit physiology, and TDP-43 pathology by CHCHD10” (Acta Neuropathologica Communications, 2022).

Biological target: Recombinant full-length human TDP-43 (human, UniProt Q13148 1-414)
Assay: cell-based or functional assay

Sequence of Recombinant full-length human TDP-43 (Q13148 whole entry): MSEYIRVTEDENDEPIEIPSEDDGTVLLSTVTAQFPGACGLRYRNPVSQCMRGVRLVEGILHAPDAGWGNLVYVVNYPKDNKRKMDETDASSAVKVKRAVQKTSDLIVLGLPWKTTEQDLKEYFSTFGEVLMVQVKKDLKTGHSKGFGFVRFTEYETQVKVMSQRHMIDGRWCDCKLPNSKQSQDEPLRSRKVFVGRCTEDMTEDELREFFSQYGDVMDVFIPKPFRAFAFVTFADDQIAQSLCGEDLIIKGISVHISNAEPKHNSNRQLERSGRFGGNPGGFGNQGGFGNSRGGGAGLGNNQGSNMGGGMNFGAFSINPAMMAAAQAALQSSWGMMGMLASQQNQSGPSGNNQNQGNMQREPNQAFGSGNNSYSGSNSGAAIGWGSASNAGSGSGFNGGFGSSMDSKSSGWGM

area of high-height particles > 10 nm by atomic force microscopy after co-incubation of TDP-43 (1 μM) with CHCHD10^S59L (1 μM), 37 °C, 8 h, shaking, against TDP-43 alone: > 3 fold
B1: His-tagged CHCHD10^S59L recombinant protein (natural protein, human, UniProt Q8WYQ3 17-142, looked up)
chain: AAPSAHPPAHPPPSAAAPAPAPSGQPGLMAQMATTAAGVAVGLAVGHVMGSALTGAFSGGSSEPSQPAVQQAPTPAAPQPLQMGPCAYEIRQFLDCSTTQSDLSLCEGFSEALKQCKYYHGLSSLP
